# T1: IL10R1-Fc (human, UniProt Q13651 22-235)
# T1 chain: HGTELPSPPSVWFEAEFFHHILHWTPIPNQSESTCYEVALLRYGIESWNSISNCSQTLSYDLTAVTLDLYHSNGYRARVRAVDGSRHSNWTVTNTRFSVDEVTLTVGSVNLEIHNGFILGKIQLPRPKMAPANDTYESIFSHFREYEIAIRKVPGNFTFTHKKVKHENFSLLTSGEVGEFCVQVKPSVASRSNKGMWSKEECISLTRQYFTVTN
# Target: T1, IL10R1-Fc
# Experiment: BLI; marked *
row,Binder,Kd [nM]
1,XENP25755 (Q38E) (protein) chain 1: EPKSSDKTHTCPPCPAPPVAGPSVFLFPPKPKDTLMISRTPEVTCVVVDVKHEDPEVKFNWYVDGVEVHNAKTKPREEEYNSTYRVVSVLTVLHQDWLNGKEYKCKVSNKALPAPIEKTISKAKGQPREPQVYTLPPSREEMTKNQVSLTCDVSGFYPSDIAVEWESDGQPENNYKTTPPVLDSDGSFFLYSKLTVDKSRWEQGDVFSCSVMHEALHNHYTQKSLSLSPGK chain 2: SPGQGTQSENSCTHFPGNLPNMLRDLRDAFSRVKTFFEMKDQLDNLLLKESLLEDFKGYLGCQALSEMIQFYLEEVMPQAENQDPDIKAHVNSLGENLKTLRLRLRRCHRFLPCENGGGSGGKSKAVEQVKNAFNKLQEKGIYKAMSEFDIFINYIEAYMTMKIRNEPKSSDKTHTCPPCPAPPVAGPSVFLFPPKPKDTLMISRTPEVTCVVVDVKHEDPEVKFNWYVDGVEVHNAKTKPREEQYNSTYRVVSVLTVLHQDWLNGKEYKCKVSNKALPAPIEKTISKAKGQPREPQVYTLPPSREQMTKNQVKLTCLVKGFYPSDIAVEWESNGQPENNYKTTPPVLDSDGSFFLYSKLTVDKSRWQQGNVFSCSVMHEALHNHYTQKSLSLSPGK,6.13
2,XENP25757 (D41N) (protein) chain 1: EPKSSDKTHTCPPCPAPPVAGPSVFLFPPKPKDTLMISRTPEVTCVVVDVKHEDPEVKFNWYVDGVEVHNAKTKPREEEYNSTYRVVSVLTVLHQDWLNGKEYKCKVSNKALPAPIEKTISKAKGQPREPQVYTLPPSREEMTKNQVSLTCDVSGFYPSDIAVEWESDGQPENNYKTTPPVLDSDGSFFLYSKLTVDKSRWEQGDVFSCSVMHEALHNHYTQKSLSLSPGK chain 2: SPGQGTQSENSCTHFPGNLPNMLRDLRDAFSRVKTFFQMKNQLDNLLLKESLLEDFKGYLGCQALSEMIQFYLEEVMPQAENQDPDIKAHVNSLGENLKTLRLRLRRCHRFLPCENGGGSGGKSKAVEQVKNAFNKLQEKGIYKAMSEFDIFINYIEAYMTMKIRNEPKSSDKTHTCPPCPAPPVAGPSVFLFPPKPKDTLMISRTPEVTCVVVDVKHEDPEVKFNWYVDGVEVHNAKTKPREEQYNSTYRVVSVLTVLHQDWLNGKEYKCKVSNKALPAPIEKTISKAKGQPREPQVYTLPPSREQMTKNQVKLTCLVKGFYPSDIAVEWESNGQPENNYKTTPPVLDSDGSFFLYSKLTVDKSRWQQGNVFSCSVMHEALHNHYTQKSLSLSPGK,12.4

# Further binders by falling Kd, results first:
row,Kd [nM],Binder
1,23.8,XENP25767 (D144N) (protein) chain 1: EPKSSDKTHTCPPCPAPPVAGPSVFLFPPKPKDTLMISRTPEVTCVVVDVKHEDPEVKFNWYVDGVEVHNAKTKPREEEYNSTYRVVSVLTVLHQDWLNGKEYKCKVSNKALPAPIEKTISKAKGQPREPQVYTLPPSREEMTKNQVSLTCDVSGFYPSDIAVEWESDGQPENNYKTTPPVLDSDGSFFLYSKLTVDKSRWEQGDVFSCSVMHEALHNHYTQKSLSLSPGK chain 2: SPGQGTQSENSCTHFPGNLPNMLRDLRDAFSRVKTFFQMKDQLDNLLLKESLLEDFKGYLGCQALSEMIQFYLEEVMPQAENQDPDIKAHVNSLGENLKTLRLRLRRCHRFLPCENGGGSGGKSKAVEQVKNAFNKLQEKGIYKAMSEFNIFINYIEAYMTMKIRNEPKSSDKTHTCPPCPAPPVAGPSVFLFPPKPKDTLMISRTPEVTCVVVDVKHEDPEVKFNWYVDGVEVHNAKTKPREEQYNSTYRVVSVLTVLHQDWLNGKEYKCKVSNKALPAPIEKTISKAKGQPREPQVYTLPPSREQMTKNQVKLTCLVKGFYPSDIAVEWESNGQPENNYKTTPPVLDSDGSFFLYSKLTVDKSRWQQGNVFSCSVMHEALHNHYTQKSLSLSPGK
2,12.4,XENP25768 (E151Q) (protein) chain 1: EPKSSDKTHTCPPCPAPPVAGPSVFLFPPKPKDTLMISRTPEVTCVVVDVKHEDPEVKFNWYVDGVEVHNAKTKPREEEYNSTYRVVSVLTVLHQDWLNGKEYKCKVSNKALPAPIEKTISKAKGQPREPQVYTLPPSREEMTKNQVSLTCDVSGFYPSDIAVEWESDGQPENNYKTTPPVLDSDGSFFLYSKLTVDKSRWEQGDVFSCSVMHEALHNHYTQKSLSLSPGK chain 2: SPGQGTQSENSCTHFPGNLPNMLRDLRDAFSRVKTFFQMKDQLDNLLLKESLLEDFKGYLGCQALSEMIQFYLEEVMPQAENQDPDIKAHVNSLGENLKTLRLRLRRCHRFLPCENGGGSGGKSKAVEQVKNAFNKLQEKGIYKAMSEFDIFINYIQAYMTMKIRNEPKSSDKTHTCPPCPAPPVAGPSVFLFPPKPKDTLMISRTPEVTCVVVDVKHEDPEVKFNWYVDGVEVHNAKTKPREEQYNSTYRVVSVLTVLHQDWLNGKEYKCKVSNKALPAPIEKTISKAKGQPREPQVYTLPPSREQMTKNQVKLTCLVKGFYPSDIAVEWESNGQPENNYKTTPPVLDSDGSFFLYSKLTVDKSRWQQGNVFSCSVMHEALHNHYTQKSLSLSPGK

# — US20210171596A1 (published 2021)
